Biological target: AROS (UniProt Q86WX3)
Test: Flag-SIRT1 IP, HA-AROS immunoblot
Details: reference: wild type, Adriamycin-treated; sites S682

- binding against the reference: stronger
Substance: SIRT1 (from UniProt Q96EB6) S682A, Adriamycin-treated
